{"source": "patent US20260250398A1", "about": "(published 2026)", "binders": {"B1": {"name": "FZD5 (receptor)", "chain": "ASKAPVCQEITVPMCRGIGYNLTHMPNQFNHDTQDEAGLEVHQFWPLVEIQCSPDLRFFLCSMYTPICLPDYHKPLPPCRSVCERAKAGCSPLMRQYGFAWPERMSCDRLPVLGRDAEVLCMDYNRSEATTAPPRPFPAKP"}}, "assay_in_all_cases": "BLI; avid", "key": {"[1]": {"biological_target": "ANT 80"}, "[2]": {"biological_target": "ANT 99"}, "[3]": {"biological_target": "ANT 98"}}, "data": [{"binder": "B1", "values": [{"measurement": "Kd", "setting": "[1]", "result": 50, "unit": "pM"}, {"measurement": "Kd", "setting": "[2]", "result": 400, "unit": "pM"}, {"measurement": "Kd", "setting": "[3]", "result": 2000, "unit": "pM"}]}]}
